From article PMC12120360, “Lysine acetylation modulates s‐OPA1 GTPase activity and oligomerization in mitochondrial membrane remodeling” (Protein Science : A Publication of the Protein Society, 2025)
Where a chain is given by its changes, count along the chain named. Names may count otherwise.

B1: short form of human OPA1 (residues 195–960) wild-type (domain or fragment, UniProt O60313-1 195-960, looked up)
chain: ATDRGSESDKHFRKVSDKEKIDQLQEELLHTQLKYQRILERLEKENKELRKLVLQKDDKGIHHRKLKKSLIDMYSEVLDVLSDYDASYNTQDHLPRVVVVGDQSAGKTSVLEMIAQARIFPRGSGEMMTRSPVKVTLSEGPHHVALFKDSSREFDLTKEEDLAALRHEIELRMRKNVKEGCTVSPETISLNVKGPGLQRMVLVDLPGVINTVTSGMAPDTKETIFSISKAYMQNPNAIILCIQDGSVDAERSIVTDLVSQMDPHGRRTIFVLTKVDLAEKNVASPSRIQQIIEGKLFPMKALGYFAVVTGKGNSSESIEAIREYEEEFFQNSKLLKTSMLKAHQVTTRNLSLAVSDCFWKMVRESVEQQADSFKATRFNLETEWKNNYPRLRELDRNELFEKAKNEILDEVISLSQVTPKHWEEILQQSLWERVSTHVIENIYLPAAQTMNSGTFNTTVDIKLKQWTDKQLPNKAVEVAWETLQEEFSRFMTEPKGKEHDDIFDKLKEAVKEESIKRHKWNDFAEDSLRVIQHNALEDRSISDKQQWDAAIYFMEEALQARLKDTENAIENMVGPDWKKRWLYWKNRTQEQCVHNETKNELEKMLKCNEEHPAYLASDEITTVRKNLESRGVEVDPSLIKDTWHQVYRRHFLKTALNHCNLCRRGFYYYQRHFVDSELECNDVVLFWRIQRMLAITANTLRQQLTNTEVRRLEKNVKEVLEDFAEDGEKKIKLLTGKRVQLAEDLKKVREIQEKLDAFIEALHQEK
modifications: acetyl-lysine at K342 only (endogenous, acquired during expression; found by mass spectrometry)
notes: Optic Atrophy 1 (OPA1), human, short form (s-OPA1), residues 195-960; domain model of isoform 1; Gene bought from Genscript in the pGS-21a vector; also called s-OPA1 WT; s-OPA1; source: E. coli BL21 (DE3), purified (glutathione resin, 3C protease cleavage, size exclusion chromatography)
B2: s-OPA1 K342R (domain or fragment, human, UniProt O60313-1 195-960, looked up)
chain: B1 chain with K148R
modifications: 18 acetylated lysine sites (endogenous; listed in Figure 2c)
notes: Optic Atrophy 1 (OPA1), human, short form (s-OPA1), residues 195-960; domain model of isoform 1; Gene bought from Genscript in the pGS-21a vector; source: E. coli BL21 (DE3), purified (glutathione resin, 3C protease cleavage, size exclusion chromatography)
B3: s-OPA1 K772R (domain or fragment, human, UniProt O60313-1 195-960, looked up)
chain: B1 chain with K578R
modifications: 10 endogenous acetylated lysine residues, including K328 and K342 (listed in Figure 2c)
notes: as for B2
B4: s-OPA1 K579Q (domain or fragment, human, UniProt O60313-1 195-960, looked up)
chain: B1 chain with K385Q
modifications: endogenous lysine acetylation, sites listed in Figure 2c
notes: as for B2
B5: s-OPA1 K772Q (domain or fragment, human, UniProt O60313-1 195-960, looked up)
chain: B1 chain with K578Q
modifications: acetyl-lysine at K713 only (endogenous, by mass spectrometry)
notes: as for B2
B6: s-OPA1 K663Q (domain or fragment, human, UniProt O60313-1 195-960, looked up)
chain: B1 chain with K469Q
modifications: endogenous lysine acetylation, sites listed in Figure 2c
notes: as for B2
B7: s-OPA1 K328Q (domain or fragment, human, UniProt O60313-1 195-960, looked up)
chain: B1 chain with K134Q
modifications: acetyl-lysine at K713 only (endogenous, by mass spectrometry)
notes: Optic Atrophy 1 (OPA1), human, short form (s-OPA1), residues 195-960; domain model of isoform 1; Gene bought from Genscript in the pGS-21a vector; also called acetylation mimetic mutant K328Q; source: E. coli BL21 (DE3), purified (glutathione resin, 3C protease cleavage, size exclusion chromatography)
B8: s-OPA1 K328R (domain or fragment, human, UniProt O60313-1 195-960, looked up)
chain: B1 chain with K134R
modifications: endogenous lysine acetylation, sites listed in Figure 2c
notes: Optic Atrophy 1 (OPA1), human, short form (s-OPA1), residues 195-960; domain model of isoform 1; Made as a deacetylation mimetic; source: E. coli BL21 (DE3), purified (glutathione resin, 3C protease cleavage, size exclusion chromatography)
B9: s-OPA1 K342Q (domain or fragment, human, UniProt O60313-1 195-960, looked up)
chain: B1 chain with K148Q
modifications: 11 additional acetylation sites (endogenous; listed in Figure 2c)
notes: as for B2
B10: s-OPA1 K579R (domain or fragment, human, UniProt O60313-1 195-960, looked up)
chain: B1 chain with K385R
modifications: endogenous lysine acetylation, sites listed in Figure 2c
notes: as for B2
B11: s-OPA1 K663R (domain or fragment, human, UniProt O60313-1 195-960, looked up)
chain: B1 chain with K469R
modifications: endogenous lysine acetylation, sites listed in Figure 2c
notes: as for B2

Target: the molecule itself
Experiment: mass photometry; protein in solution at 75 nM final; 20 mM HEPES-NaOH pH 7.5, 130 mM NaCl, 10 mM KCl, 2 mM MgCl2, 2 mM DTT, 2% glycerol; Refeyn mass photometer; mass measured three times for each protein

Stoichiometry N, 2:
B1
B2
B3
B4
B5
B6
B7
B8
B9
B10
B11
